Test results reported in patent publication US20180155451A1 (published 2018).

T1: FcγRIIb (human, UniProt P31994 43-217)
T1 construct: extracellular domain; also called FcgRIIb; 2b
T1 sequence (looked up): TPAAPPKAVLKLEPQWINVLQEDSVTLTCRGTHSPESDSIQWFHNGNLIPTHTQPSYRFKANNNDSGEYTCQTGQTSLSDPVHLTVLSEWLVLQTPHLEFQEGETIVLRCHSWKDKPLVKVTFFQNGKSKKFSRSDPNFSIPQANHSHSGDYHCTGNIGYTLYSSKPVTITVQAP

T2: FcγRIIa H (FcγRIIa, type H allotype, His at position 131), extracellular domain with C-terminal His tag (human, UniProt P12318 34-217)
T2 construct: extracellular domain; Soluble receptor expressed in FreeStyle293 cells; analyte in Biacore; also called FcgRIIa H; 2aH; not shown: C-terminal His tag
T2 sequence (looked up): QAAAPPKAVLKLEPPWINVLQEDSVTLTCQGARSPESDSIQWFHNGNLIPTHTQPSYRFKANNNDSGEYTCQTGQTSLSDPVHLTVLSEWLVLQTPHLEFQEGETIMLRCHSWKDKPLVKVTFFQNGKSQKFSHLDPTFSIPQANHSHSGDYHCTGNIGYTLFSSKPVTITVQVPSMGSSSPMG

T3: FcγRIIb, extracellular domain with C-terminal His tag (human, UniProt P31994 43-217)
T3 construct: extracellular domain; Soluble receptor expressed in FreeStyle293 cells; analyte in Biacore; also called FcgRIIb; 2b; not shown: C-terminal His tag
T3 sequence (looked up): T1 sequence (looked up)

B1: GpH7-A5/GpH7-B3 variant S337_18N/GpL16-k0 (antibody, human IgG1, kappa)
heavy 1: not shown
heavy 2: not shown
light: DIVMTQSPLSLPVTPGEPASISCQASESLVHSNRNTYLHWYLQKPGQSPQLLIYKVSNRFSGVPDRFSGSGSGTDFTLKISRVEAEDVGVYYCSQNTHVPPTFGQGTKVEIERTVAAPSVFIFPPSDEQLKSGTASVVCLLNNFYPREAKVQWKVDNALQSGNSQESVTEQDSKDSTYSLSSTLTLSKADYEKHKVYACEVTHQGLSSPVTKSFNRGEC
notes: heterodimerized IgG1, mutation in one H chain only; also called He Ab
B2: GpH7-A5/GpH7-B3 variant T335_07I/GpL16-k0 (antibody, human IgG1, kappa)
heavy 1: not shown
heavy 2: not shown
light: B1 light
notes: as for B1
B3: GpH7-A5/GpH7-B3 variant T335_10E/GpL16-k0 (antibody, human IgG1, kappa)
heavy 1: not shown
heavy 2: not shown
light: B1 light
notes: as for B1
B4: GpH7-A5/GpH7-B3 variant D265_15Y/GpL16-k0 (antibody, human IgG1, kappa)
heavy 1: not shown
heavy 2: not shown
light: B1 light
notes: heterodimerized antibody, mutation in the GpH7-B3 chain only; also called He Ab
B5: GpH7-A5/GpH7-B3 variant D265_20W/GpL16-k0 (antibody, human IgG1, kappa)
heavy 1: not shown
heavy 2: not shown
light: B1 light
notes: as for B4
B6: GpH7-A5/GpH7-B3 variant V266_12R/GpL16-k0 (antibody, human IgG1, kappa)
heavy 1: not shown
heavy 2: not shown
light: B1 light
notes: as for B4
B7: GpH7-A5/GpH7-B3 variant D270_01G/GpL16-k0 (antibody, human IgG1, kappa)
heavy 1: not shown
heavy 2: not shown
light: B1 light
notes: Heterodimerized IgG1; mutation only in the GpH7-B3 chain; also called He Ab
B8: GpH7-A5/GpH7-B3 variant D270_02A/GpL16-k0 (antibody, human IgG1, kappa)
heavy 1: not shown
heavy 2: not shown
light: B1 light
notes: as for B7
B9: GpH7-A5/GpH7-B3 variant D270_03V/GpL16-k0 (antibody, human IgG1, kappa)
heavy 1: not shown
heavy 2: not shown
light: B1 light
notes: as for B7
B10: GpH7-A5/GpH7-B3 variant D270_04F/GpL16-k0 (antibody, human IgG1, kappa)
heavy 1: not shown
heavy 2: not shown
light: B1 light
notes: as for B7
B11: GpH7-A5/GpH7-B3 variant D270_06M/GpL16-k0 (antibody, human IgG1, kappa)
heavy 1: not shown
heavy 2: not shown
light: B1 light
notes: as for B7
B12: GpH7-A5/GpH7-B3 variant D270_07I/GpL16-k0 (antibody, human IgG1, kappa)
heavy 1: not shown
heavy 2: not shown
light: B1 light
notes: as for B7
B13: GpH7-A5/GpH7-B3 variant D270_08L/GpL16-k0 (antibody, human IgG1, kappa)
heavy 1: not shown
heavy 2: not shown
light: B1 light
notes: as for B7
B14: GpH7-A5/GpH7-B3 variant D270_10E/GpL16-k0 (antibody, human IgG1, kappa)
heavy 1: not shown
heavy 2: not shown
light: B1 light
notes: as for B7
B15: GpH7-A5/GpH7-B3 variant D270_11K/GpL16-k0 (antibody, human IgG1, kappa)
heavy 1: not shown
heavy 2: not shown
light: B1 light
notes: as for B7
B16: GpH7-A5/GpH7-B3 variant D270_12R/GpL16-k0 (antibody, human IgG1, kappa)
heavy 1: not shown
heavy 2: not shown
light: B1 light
notes: as for B7
B17: GpH7-A5/GpH7-B3 variant D270_13S/GpL16-k0 (antibody, human IgG1, kappa)
heavy 1: not shown
heavy 2: not shown
light: B1 light
notes: as for B7
B18: GpH7-A5/GpH7-B3 variant D270_14T/GpL16-k0 (antibody, human IgG1, kappa)
heavy 1: not shown
heavy 2: not shown
light: B1 light
notes: as for B7

The binders below were run against T4, FcγRIIIa extracellular domain with C-terminal His tag (human, UniProt P08637 17-208) (assay: SPR, relative to GpH7-A5/GpH7-B3/GpL16-k0).
T4 construct: extracellular domain; also called FcgRIIIa; 3a
T4 sequence (P08637 17-208): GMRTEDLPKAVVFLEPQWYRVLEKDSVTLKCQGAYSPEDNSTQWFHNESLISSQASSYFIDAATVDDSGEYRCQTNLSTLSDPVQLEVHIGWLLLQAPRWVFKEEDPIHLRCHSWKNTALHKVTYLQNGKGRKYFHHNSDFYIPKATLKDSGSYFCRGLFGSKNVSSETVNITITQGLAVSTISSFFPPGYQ
With B1 the He/Con_3a was 104 % of control (=100).
For B2, the He/Con_3a was 107 % of control (=100).
With B3 the He/Con_3a was 107 % of control (=100).

The binders below were run against T1, FcγRIIb (assay: SPR (Biacore), antibody captured, FcγR as analyte; relative binding).
Procedure: The heterodimerized antibodies He Abs in which one of the H chains was introduced with an alteration were assayed for their binding activities to each activating FcγR and inhibitory FcγR according to the method described in Example 4. […] The activating FcγRs in FIGS. 26, 27, 28, and 29 are FcγRIa, FcγRIIa (R), FcγRIIa (H), and FcγRIIIa, respectively.
Analysis of interaction between objective antibody and the FcγR was carried out using Biacore T100 (GE Healthcare). HBS-EP+ (GE Healthcare) was used as the running buffer, and the measurement temperature was set to 25° C. Chips produced by immobilizing the antigen peptide by the amine coupling method to a Series S Sencor Chip CM5 (GE Healthcare), or alternatively, chips produced by allowing preliminarily biotinylated antigen peptides to interact with and immobilize onto a Series S Sensor Chip SA (certified) (GE Healthcare) were used. Antibodies of interest were captured onto an antigen peptide-immobilized chip, and allowed to interact to each FcγR diluted with running buffer. To regenerate and repeatedly use the chip, the antibodies captured on the chip were washed off by reacting 10 mM glycine-HCl, pH 1.5.
For B4, the “He/Con_2b (IIb binding)” value was 0.6 % of GpH7-A5/GpH7-B3/GpL16-k0 (=100).
In the case of B5, the “He/Con_2b (IIb binding)” value is reported as 1.1 % of GpH7-A5/GpH7-B3/GpL16-k0 (=100).
B6 was tested, and the “He/Con_2b (IIb binding)” value was -1.1 % of GpH7-A5/GpH7-B3/GpL16-k0 (=100).

The binders below were run against T2, FcγRIIa H (FcγRIIa, type H allotype, …) (assay: ratio of He/Con_2aH to He/Con_2b (FcγRIIa H over FcγRIIb), SPR).
In the case of B7, the “He_2aH/2b (IIaH/IIb)” value is reported as 1.72.
B8 was tested, and the “He_2aH/2b (IIaH/IIb)” value was 1.58.
With B9 the “He_2aH/2b (IIaH/IIb)” value was 1.56.
In the case of B10, the “He_2aH/2b (IIaH/IIb)” value is reported as 1.42.
With B11 the “He_2aH/2b (IIaH/IIb)” value was 1.54.
For B12, the “He_2aH/2b (IIaH/IIb)” value was 1.54.
B13 was tested, and the “He_2aH/2b (IIaH/IIb)” value was 1.41.
For B14, the “He_2aH/2b (IIaH/IIb)” value was 1.34.
In the case of B15, the “He_2aH/2b (IIaH/IIb)” value is reported as 2.17.
For B16, the “He_2aH/2b (IIaH/IIb)” value was 2.16.
For B17, the “He_2aH/2b (IIaH/IIb)” value was 1.61.
B18 was tested, and the “He_2aH/2b (IIaH/IIb)” value was 1.3.

These binders were tested against T2, FcγRIIa H (FcγRIIa, type H allotype, …) (assay: SPR (Biacore), captured antibody, FcγR as analyte).
For B7, the He/Con_2aH was 52.5 relative, GpH7-A5/GpH7-B3/GpL16-k0 = 100.
For B8, the He/Con_2aH was 76.4 relative, GpH7-A5/GpH7-B3/GpL16-k0 = 100.
In the case of B9, the He/Con_2aH is reported as 61.8 relative, GpH7-A5/GpH7-B3/GpL16-k0 = 100.
With B10 the He/Con_2aH was 75.4 relative, GpH7-A5/GpH7-B3/GpL16-k0 = 100.
With B11 the He/Con_2aH was 74.4 relative, GpH7-A5/GpH7-B3/GpL16-k0 = 100.
With B12 the He/Con_2aH was 64 relative, GpH7-A5/GpH7-B3/GpL16-k0 = 100.
With B13 the He/Con_2aH was 75.8 relative, GpH7-A5/GpH7-B3/GpL16-k0 = 100.
For B14, the He/Con_2aH was 102 relative, GpH7-A5/GpH7-B3/GpL16-k0 = 100.
For B15, the He/Con_2aH was 44 relative, GpH7-A5/GpH7-B3/GpL16-k0 = 100.
With B16 the He/Con_2aH was 39.5 relative, GpH7-A5/GpH7-B3/GpL16-k0 = 100.
With B17 the He/Con_2aH was 71.2 relative, GpH7-A5/GpH7-B3/GpL16-k0 = 100.
In the case of B18, the He/Con_2aH is reported as 75.3 relative, GpH7-A5/GpH7-B3/GpL16-k0 = 100.

Each binder was assayed against T3, FcγRIIb, extracellular domain with … (assay: SPR (Biacore), captured antibody, FcγR as analyte).
B7 was tested, and the He/Con_2b was 30.5 relative, GpH7-A5/GpH7-B3/GpL16-k0 = 100.
For B8, the He/Con_2b was 48.3 relative, GpH7-A5/GpH7-B3/GpL16-k0 = 100.
In the case of B9, the He/Con_2b is reported as 39.5 relative, GpH7-A5/GpH7-B3/GpL16-k0 = 100.
In the case of B10, the He/Con_2b is reported as 53.1 relative, GpH7-A5/GpH7-B3/GpL16-k0 = 100.
For B11, the He/Con_2b was 48.2 relative, GpH7-A5/GpH7-B3/GpL16-k0 = 100.
For B12, the He/Con_2b was 41.5 relative, GpH7-A5/GpH7-B3/GpL16-k0 = 100.
For B13, the He/Con_2b was 53.6 relative, GpH7-A5/GpH7-B3/GpL16-k0 = 100.
With B14 the He/Con_2b was 76.5 relative, GpH7-A5/GpH7-B3/GpL16-k0 = 100.
With B15 the He/Con_2b was 20.3 relative, GpH7-A5/GpH7-B3/GpL16-k0 = 100.
With B16 the He/Con_2b was 18.3 relative, GpH7-A5/GpH7-B3/GpL16-k0 = 100.
In the case of B17, the He/Con_2b is reported as 44.2 relative, GpH7-A5/GpH7-B3/GpL16-k0 = 100.
For B18, the He/Con_2b was 57.8 relative, GpH7-A5/GpH7-B3/GpL16-k0 = 100.
